# Data from PMC9482650, “Quantitative fragmentomics allow affinity mapping of interactomes” (Nature Communications, 2022).
# T1: PTPN13_1, Q12923
# T1 sequence (Q12923 1088-1188, limits assumed, looked up): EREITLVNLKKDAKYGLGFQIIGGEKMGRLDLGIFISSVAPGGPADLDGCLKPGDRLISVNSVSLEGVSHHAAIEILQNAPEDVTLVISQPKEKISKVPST
# T2: DVL3, Q92997
# T2 sequence (Q92997 244-331, limits assumed, looked up): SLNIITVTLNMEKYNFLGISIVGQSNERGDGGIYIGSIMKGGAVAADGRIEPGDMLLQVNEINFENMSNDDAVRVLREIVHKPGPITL
# T3: PCLO, Q9Y6V0
# T3 sequence (Q9Y6V0 4491-4600, limits assumed, looked up): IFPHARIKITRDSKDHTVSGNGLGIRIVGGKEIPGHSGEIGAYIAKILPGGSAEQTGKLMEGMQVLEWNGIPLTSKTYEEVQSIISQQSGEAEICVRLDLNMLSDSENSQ
# T4: MPDZ_12, O75970
# T4 sequence (O75970 1857-1958, limits assumed, looked up): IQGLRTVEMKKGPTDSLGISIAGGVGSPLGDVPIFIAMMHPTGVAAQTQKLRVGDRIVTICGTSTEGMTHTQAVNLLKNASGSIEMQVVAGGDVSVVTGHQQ
# T5: PDZD2_2, O15018
# T5 sequence (O15018 329-429, limits assumed, looked up): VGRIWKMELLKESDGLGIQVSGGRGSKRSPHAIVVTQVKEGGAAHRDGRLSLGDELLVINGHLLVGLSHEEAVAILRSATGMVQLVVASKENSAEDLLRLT
# T6: APBA1_1, Q02410
# T6 sequence (Q02410 651-752, limits assumed, looked up): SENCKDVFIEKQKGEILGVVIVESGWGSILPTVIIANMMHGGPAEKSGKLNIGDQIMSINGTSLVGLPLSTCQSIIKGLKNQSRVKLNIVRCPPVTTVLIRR
# T7: SHANK1, Q9Y566
# T7 sequence (Q9Y566 658-767, limits assumed, looked up): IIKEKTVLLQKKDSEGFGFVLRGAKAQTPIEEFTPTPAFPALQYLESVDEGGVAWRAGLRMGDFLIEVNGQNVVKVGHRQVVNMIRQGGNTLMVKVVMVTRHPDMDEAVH
# T8: GRIP1_3, Q9Y3R0
# T8 sequence (Q9Y3R0 247-346, limits assumed, looked up): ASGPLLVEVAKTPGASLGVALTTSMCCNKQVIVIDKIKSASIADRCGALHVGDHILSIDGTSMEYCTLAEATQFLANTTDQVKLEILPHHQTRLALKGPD
# T9: PDZRN3_1, Q9UPQ7
# T9 sequence (Q9UPQ7 244-349, limits assumed, looked up): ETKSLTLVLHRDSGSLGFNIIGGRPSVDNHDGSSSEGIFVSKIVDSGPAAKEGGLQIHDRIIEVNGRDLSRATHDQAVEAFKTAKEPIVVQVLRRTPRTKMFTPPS
# T10: DFNB31_2, Q9P202
# T10 sequence (Q9P202 274-371, limits assumed, looked up): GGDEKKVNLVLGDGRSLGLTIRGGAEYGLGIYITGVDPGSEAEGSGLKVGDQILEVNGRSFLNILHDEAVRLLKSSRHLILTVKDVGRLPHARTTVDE
# T11: FRMPD1, Q5SYB0
# T11 sequence (Q5SYB0 52-145, limits assumed, looked up): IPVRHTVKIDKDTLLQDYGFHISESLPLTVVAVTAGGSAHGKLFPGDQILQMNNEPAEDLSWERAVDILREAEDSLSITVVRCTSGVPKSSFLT
# B1: CYSLTR2, Q9NS75 (peptide)
# chain: SVWLRKETRV
# B2: NF2, P35240 (peptide)
# chain: KSRVAFFEEL
# B3: MUC3B, MUC3A, Q02505;Q9H195 (peptide)
# chain: KRPEMTSSSV
# B4: CNKSR2, Q8WXI2 (peptide)
# chain: HTHSYIETHV
# B5: GRASP, Q7Z6J2 (peptide)
# chain: RSLEEEESQL
# B6: HPV67-E6, A4U7F2 (peptide)
# chain: SRPQRTQTQV
# B7: LRP4, O75096 (peptide)
# chain: ERKLSSESQV
# Key:
# Experiment in all cases: holdup assay
# Design in all cases: key: below the threshold = too weak to quantify, mostly under pKd 3.1 to 4
# [1] = molecular target: IL16_4, Q14005
# IL16_4, Q14005, sequence (Q14005 1229-1329): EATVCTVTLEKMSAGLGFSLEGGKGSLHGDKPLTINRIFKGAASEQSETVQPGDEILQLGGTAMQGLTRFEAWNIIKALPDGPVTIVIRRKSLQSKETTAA
# [2] = molecular target: T1, PTPN13_1, Q12923
# [3] = molecular target: Inadl_5, Q8NI35
# Inadl_5, Q8NI35, sequence (Q8NI35 673-780): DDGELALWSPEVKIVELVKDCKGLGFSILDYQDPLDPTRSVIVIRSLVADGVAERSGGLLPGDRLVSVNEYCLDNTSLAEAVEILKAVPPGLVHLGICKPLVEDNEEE
# [4] = molecular target: FRMPD2_3, Q68DX3
# FRMPD2_3, Q68DX3, sequence (Q68DX3 1073-1166): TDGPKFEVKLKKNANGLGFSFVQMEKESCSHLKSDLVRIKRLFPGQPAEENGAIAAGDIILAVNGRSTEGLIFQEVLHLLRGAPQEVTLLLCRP
# [5] = molecular target: T2, DVL3, Q92997
# [6] = molecular target: Inadl_3, Q8NI35
# Inadl_3, Q8NI35, sequence (Q8NI35 359-469): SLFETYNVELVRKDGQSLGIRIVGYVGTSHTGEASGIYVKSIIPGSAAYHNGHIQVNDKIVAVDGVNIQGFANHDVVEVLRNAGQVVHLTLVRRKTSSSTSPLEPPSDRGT
# [7] = molecular target: MAGI2_6, Q86UL8
# MAGI2_6, Q86UL8, sequence (Q86UL8 1141-1229): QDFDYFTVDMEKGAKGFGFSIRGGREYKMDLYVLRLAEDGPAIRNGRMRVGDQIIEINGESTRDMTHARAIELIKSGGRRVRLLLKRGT
# [8] = molecular target: LNX1_3, Q8TBB1
# LNX1_3, Q8TBB1, sequence (Q8TBB1 500-596): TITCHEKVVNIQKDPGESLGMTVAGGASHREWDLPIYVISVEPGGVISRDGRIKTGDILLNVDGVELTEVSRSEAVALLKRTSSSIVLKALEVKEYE
# [9] = molecular target: T3, PCLO, Q9Y6V0
# [10] = molecular target: T4, MPDZ_12, O75970
# [11] = molecular target: T5, PDZD2_2, O15018
# [12] = molecular target: T6, APBA1_1, Q02410
# [13] = molecular target: DLG2_2, Q15700
# DLG2_2, Q15700, sequence (Q15700 189-283): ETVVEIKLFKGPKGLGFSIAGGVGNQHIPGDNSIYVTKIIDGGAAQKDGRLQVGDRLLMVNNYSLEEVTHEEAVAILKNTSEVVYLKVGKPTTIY
# [14] = molecular target: NOS1, P29475
# NOS1, P29475, sequence (P29475 9-101): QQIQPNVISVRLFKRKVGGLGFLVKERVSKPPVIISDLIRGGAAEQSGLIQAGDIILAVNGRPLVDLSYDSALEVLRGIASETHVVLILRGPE
# [15] = molecular target: Inadl_1, Q8NI35
# Inadl_1, Q8NI35, sequence (Q8NI35 113-229): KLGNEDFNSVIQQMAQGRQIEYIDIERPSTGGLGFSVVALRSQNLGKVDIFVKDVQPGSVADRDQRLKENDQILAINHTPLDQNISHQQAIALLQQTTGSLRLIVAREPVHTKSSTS
# [16] = molecular target: NHERF4_1, Q86UT5-2
# NHERF4_1, Q86UT5-2, sequence (Q86UT5 other isoform, or with tags, fused parts or gaps): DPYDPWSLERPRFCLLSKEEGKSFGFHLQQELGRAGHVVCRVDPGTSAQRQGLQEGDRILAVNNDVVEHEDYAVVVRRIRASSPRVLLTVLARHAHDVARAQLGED
# [17] = molecular target: T7, SHANK1, Q9Y566
# [18] = molecular target: FRMPD3, Q5JV73
# FRMPD3, Q5JV73, sequence (Q5JV73 12-100): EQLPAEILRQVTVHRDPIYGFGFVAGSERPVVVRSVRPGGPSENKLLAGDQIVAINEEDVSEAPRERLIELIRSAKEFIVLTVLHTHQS
# [19] = molecular target: LNX1_2, Q8TBB1
# LNX1_2, Q8TBB1, sequence (Q8TBB1 371-470): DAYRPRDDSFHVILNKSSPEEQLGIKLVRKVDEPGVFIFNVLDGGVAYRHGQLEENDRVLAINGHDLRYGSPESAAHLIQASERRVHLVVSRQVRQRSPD
# [20] = molecular target: T8, GRIP1_3, Q9Y3R0
# [21] = molecular target: MAGI2_2, Q86UL8
# MAGI2_2, Q86UL8, sequence (Q86UL8 410-522): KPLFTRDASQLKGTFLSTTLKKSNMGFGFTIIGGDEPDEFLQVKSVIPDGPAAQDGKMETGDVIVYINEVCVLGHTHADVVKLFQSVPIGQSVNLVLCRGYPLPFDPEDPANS
# [22] = molecular target: T9, PDZRN3_1, Q9UPQ7
# [23] = molecular target: T10, DFNB31_2, Q9P202
# [24] = molecular target: NHERF4_4, Q86UT5
# NHERF4_4, Q86UT5, sequence (Q86UT5 464-550): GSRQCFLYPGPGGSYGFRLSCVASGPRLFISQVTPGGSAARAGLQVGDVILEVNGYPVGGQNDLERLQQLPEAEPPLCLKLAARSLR
# [25] = molecular target: T11, FRMPD1, Q5SYB0
# [26] = plain residues with an end cap or a label only (N-terminal biotin on a linker: ttds)
# [27] = plain residues with an end cap or a label only (N-terminal biotin on a linker: ado-ado)
# [28] = plain residues with an end cap or a label only (N-terminal biotin on a linker: ahx)
binder,measurement,setting,value
B1,pKd,[1]; [26],below the threshold
same,pKd,[2]; [26],3.43
same,pKd,[3]; [26],3.62
same,pKd,[4]; [26],3.57
same,pKd,[5]; [26],below the threshold
same,pKd,[6]; [26],below the threshold
same,pKd,[7]; [26],3.51
same,pKd,[8]; [26],3.46
same,pKd,[9]; [26],below the threshold
same,pKd,[10]; [26],below the threshold
same,pKd,[11]; [26],3.8
same,pKd,[12]; [26],below the threshold
same,pKd,[13]; [26],5.24
same,pKd,[14]; [26],3.85
same,pKd,[15]; [26],below the threshold
same,pKd,[16]; [26],below the threshold
same,pKd,[17]; [26],3.51
same,pKd,[18]; [26],below the threshold
same,pKd,[19]; [26],3.4
same,pKd,[20]; [26],below the threshold
same,pKd,[21]; [26],5.68
same,pKd,[22]; [26],5.1
same,pKd,[23]; [26],3.73
same,pKd,[24]; [26],below the threshold
same,pKd,[25]; [26],below the threshold
B2,pKd,[1]; [27],3.68
same,pKd,[5]; [27],3.49
same,pKd,[8]; [27],3.61
same,pKd,[11]; [27],3.71
same,pKd,[13]; [27],3.51
same,pKd,[14]; [27],3.58
same,pKd,[18]; [27],3.5
same,pKd,[22]; [27],3.54
B3,pKd,[2]; [27],below the threshold
same,pKd,[10]; [27],below the threshold
same,pKd,[11]; [27],5.11
same,pKd,[14]; [27],below the threshold
same,pKd,[22]; [27],below the threshold
same,pKd,[24]; [27],below the threshold
same,pKd,[25]; [27],below the threshold
B4,pKd,[1]; [28],below the threshold
same,pKd,[2]; [28],below the threshold
same,pKd,[3]; [28],below the threshold
same,pKd,[4]; [28],3.87
same,pKd,[5]; [28],below the threshold
same,pKd,[6]; [28],3.66
same,pKd,[7]; [28],4.41
same,pKd,[8]; [28],below the threshold
same,pKd,[9]; [28],below the threshold
same,pKd,[10]; [28],below the threshold
same,pKd,[11]; [28],4.24
same,pKd,[12]; [28],below the threshold
same,pKd,[13]; [28],4.42
same,pKd,[14]; [28],3.85
same,pKd,[15]; [28],below the threshold
same,pKd,[16]; [28],below the threshold
same,pKd,[17]; [28],4.24
same,pKd,[18]; [28],below the threshold
same,pKd,[19]; [28],below the threshold
same,pKd,[20]; [28],below the threshold
same,pKd,[21]; [28],4.37
same,pKd,[22]; [28],3.8
same,pKd,[23]; [28],3.76
same,pKd,[24]; [28],below the threshold
same,pKd,[25]; [28],below the threshold
B5,pKd,[1]; [26],3.54
same,pKd,[2]; [26],3.63
same,pKd,[3]; [26],below the threshold
same,pKd,[4]; [26],4.08
same,pKd,[5]; [26],3.96
same,pKd,[6]; [26],below the threshold
same,pKd,[7]; [26],below the threshold
same,pKd,[8]; [26],below the threshold
same,pKd,[9]; [26],3.73
same,pKd,[10]; [26],below the threshold
same,pKd,[11]; [26],3.98
same,pKd,[12]; [26],below the threshold
same,pKd,[13]; [26],below the threshold
same,pKd,[14]; [26],3.6
same,pKd,[15]; [26],below the threshold
same,pKd,[16]; [26],3.9
same,pKd,[17]; [26],5.1
same,pKd,[18]; [26],3.63
same,pKd,[19]; [26],3.56
same,pKd,[20]; [26],below the threshold
same,pKd,[21]; [26],below the threshold
same,pKd,[22]; [26],4.24
same,pKd,[23]; [26],3.83
same,pKd,[24]; [26],below the threshold
same,pKd,[25]; [26],3.71
B6,pKd,[1]; [26],below the threshold
same,pKd,[2]; [26],below the threshold
same,pKd,[3]; [26],below the threshold
same,pKd,[4]; [26],below the threshold
same,pKd,[5]; [26],below the threshold
same,pKd,[6]; [26],below the threshold
same,pKd,[7]; [26],below the threshold
same,pKd,[8]; [26],below the threshold
same,pKd,[9]; [26],below the threshold
same,pKd,[10]; [26],below the threshold
same,pKd,[11]; [26],3.77
same,pKd,[12]; [26],below the threshold
same,pKd,[13]; [26],4.81
same,pKd,[14]; [26],3.81
same,pKd,[15]; [26],below the threshold
same,pKd,[16]; [26],below the threshold
same,pKd,[17]; [26],below the threshold
same,pKd,[18]; [26],below the threshold
same,pKd,[19]; [26],below the threshold
same,pKd,[20]; [26],below the threshold
same,pKd,[21]; [26],5.32
same,pKd,[22]; [26],3.76
same,pKd,[23]; [26],below the threshold
same,pKd,[24]; [26],below the threshold
same,pKd,[25]; [26],below the threshold
B7,pKd,[1]; [26],below the threshold
same,pKd,[2]; [26],below the threshold
same,pKd,[3]; [26],below the threshold
same,pKd,[4]; [26],below the threshold
same,pKd,[5]; [26],below the threshold
same,pKd,[6]; [26],below the threshold
same,pKd,[7]; [26],3.51
same,pKd,[8]; [26],below the threshold
same,pKd,[9]; [26],below the threshold
same,pKd,[10]; [26],below the threshold
same,pKd,[11]; [26],4.39
same,pKd,[12]; [26],below the threshold
same,pKd,[13]; [26],4.38
same,pKd,[14]; [26],3.81
same,pKd,[15]; [26],below the threshold
same,pKd,[16]; [26],below the threshold
same,pKd,[17]; [26],below the threshold
same,pKd,[18]; [26],below the threshold
same,pKd,[19]; [26],below the threshold
same,pKd,[20]; [26],below the threshold
same,pKd,[21]; [26],4.79
same,pKd,[22]; [26],below the threshold
same,pKd,[23]; [26],below the threshold
same,pKd,[24]; [26],below the threshold
same,pKd,[25]; [26],below the threshold
